Data from the supplement of paper PMC9112550, “Optimization of the antimicrobial peptide Bac7 by deep mutational scanning” (BMC Biology, 2022).

Test system: Escherichia coli TOP10
Test: shrunken log2 fold change of peptide-encoding DNA abundance (4.5 h post-induction vs induction); higher = less antimicrobial activity (less host growth inhibition)
Conditions: time post-induction: 4.5 h; library: site-saturation at positions 5, 18, 19, 20
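Also: peptides expressed intracellularly from a pBAD plasmid library in pooled LB shake-flask culture, induced with 0.3% L-arabinose, DNA abundance read by NGS, three biological replicates, DESeq2 with apeglm shrinkage.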

Sequence	shrunken log2 fold change
RRIRSRPPRLPRPRPRPWKFPRP	-0.176
RRIRVRPPRLPRPRPRPCGVPRP	-0.0743
RRIRLRPPRLPRPRPRPHMGPRP	-0.386
RRIRQRPPRLPRPRPRPLTRPRP	0.424
RRIRLRPPRLPRPRPRPFTCPRP	-0.115
RRIRCRPPRLPRPRPRPRFMPRP	-0.244
RRIRKRPPRLPRPRPRPFRVPRP	-0.035
RRIRLRPPRLPRPRPRPTMPPRP	-0.0783
RRIRERPPRLPRPRPRPTCEPRP	-0.122
RRIRHRPPRLPRPRPRPHTEPRP	-0.406
RRIRMRPPRLPRPRPRPYQSPRP	-0.118
RRIRERPPRLPRPRPRPNWVPRP	-0.0244
RRIRHRPPRLPRPRPRPDENPRP	-0.225
RRIRARPPRLPRPRPRPKKGPRP	0.364
RRIRQRPPRLPRPRPRPRDNPRP	-0.0667
RRIRWRPPRLPRPRPRPFYNPRP	-0.242
RRIRQRPPRLPRPRPRPMYHPRP	-0.477
RRIRWRPPRLPRPRPRPVTAPRP	0.138
RRIRHRPPRLPRPRPRPCDFPRP	-0.0501
RRIRNRPPRLPRPRPRPSVAPRP	-0.0478
RRIRQRPPRLPRPRPRPHTPPRP	-0.147
RRIRHRPPRLPRPRPRPCQAPRP	-0.119
RRIRRRPPRLPRPRPRPWEVPRP	0.125

Sequence	shrunken log2 fold change
RRIRFRPPRLPRPRPRPKFYPRP	-0.308
RRIRRRPPRLPRPRPRPRHGPRP	0.197
RRIRLRPPRLPRPRPRPQMTPRP	-0.0928
RRIRIRPPRLPRPRPRPICRPRP	-0.107
RRIRHRPPRLPRPRPRPHIQPRP	-0.701
RRIRYRPPRLPRPRPRPRYTPRP	-0.0817
RRIRLRPPRLPRPRPRPMAEPRP	0.141
RRIRTRPPRLPRPRPRPLEIPRP	0.554
RRIRQRPPRLPRPRPRPQNDPRP	0.119
RRIRPRPPRLPRPRPRPMDTPRP	-0.276
RRIRQRPPRLPRPRPRPAGVPRP	-0.102
RRIRWRPPRLPRPRPRPPCLPRP	0.186
RRIRSRPPRLPRPRPRPYASPRP	0.0607
RRIRRRPPRLPRPRPRPWFVPRP	0.214
RRIRERPPRLPRPRPRPENIPRP	-0.227
RRIRNRPPRLPRPRPRPKTDPRP	-0.206
RRIRCRPPRLPRPRPRPNNDPRP	-0.643
RRIRMRPPRLPRPRPRPDVDPRP	0.104
RRIRIRPPRLPRPRPRPIMHPRP	-0.252
RRIRIRPPRLPRPRPRPLVRPRP	0.0548
RRIRRRPPRLPRPRPRPDKLPRP	-0.115
RRIRYRPPRLPRPRPRPEGYPRP	-0.01
RRIRCRPPRLPRPRPRPLTFPRP	-0.419

Sequence	shrunken log2 fold change
RRIRFRPPRLPRPRPRPMRNPRP	0.92
RRIRCRPPRLPRPRPRPMFVPRP	-0.261
RRIRGRPPRLPRPRPRPHLLPRP	0.306
RRIRFRPPRLPRPRPRPRTWPRP	0.544
RRIRQRPPRLPRPRPRPGRAPRP	0.474
RRIRNRPPRLPRPRPRPQLCPRP	-0.00259
RRIRPRPPRLPRPRPRPFHFPRP	-0.339
RRIRNRPPRLPRPRPRPMQPPRP	-0.000687
RRIRHRPPRLPRPRPRPIMRPRP	-0.0864
RRIRNRPPRLPRPRPRPDEFPRP	-0.0168
RRIRTRPPRLPRPRPRPEYVPRP	0.0172
RRIRVRPPRLPRPRPRPIVDPRP	-0.142
RRIRYRPPRLPRPRPRPVDCPRP	-0.103
RRIRNRPPRLPRPRPRPAMVPRP	-0.0286
RRIRTRPPRLPRPRPRPNTFPRP	-0.668
RRIRCRPPRLPRPRPRPSKRPRP	-0.12
RRIRNRPPRLPRPRPRPLLCPRP	0.0225
RRIRKRPPRLPRPRPRPCDKPRP	0.000564
RRIRTRPPRLPRPRPRPITMPRP	-0.595
RRIRERPPRLPRPRPRPAGCPRP	-0.0935
RRIRPRPPRLPRPRPRPGPAPRP	0.51
RRIRHRPPRLPRPRPRPYHMPRP	-0.0151
RRIRFRPPRLPRPRPRPWAHPRP	0.195

Sequence	shrunken log2 fold change
RRIRVRPPRLPRPRPRPVGGPRP	0.306
RRIRVRPPRLPRPRPRPNINPRP	-0.608
RRIRRRPPRLPRPRPRPHSKPRP	-0.198
RRIRCRPPRLPRPRPRPQIQPRP	-0.288
RRIRIRPPRLPRPRPRPCKCPRP	-0.0887
RRIRRRPPRLPRPRPRPGMYPRP	-0.0527
RRIRFRPPRLPRPRPRPCTDPRP	-0.183
RRIRERPPRLPRPRPRPSEDPRP	-0.0724
RRIRYRPPRLPRPRPRPDPKPRP	-0.22
RRIRDRPPRLPRPRPRPNTVPRP	-0.364
RRIRHRPPRLPRPRPRPDCFPRP	0.3
RRIRVRPPRLPRPRPRPFLGPRP	-0.0486
RRIRCRPPRLPRPRPRPPLEPRP	0.186
RRIRIRPPRLPRPRPRPAIEPRP	-0.0797
RRIRKRPPRLPRPRPRPKGPPRP	0.828
RRIRKRPPRLPRPRPRPVLWPRP	1.78
RRIRIRPPRLPRPRPRPKTPPRP	-0.0573
RRIRSRPPRLPRPRPRPKQCPRP	0.14
RRIRGRPPRLPRPRPRPYGQPRP	0.0682
RRIRTRPPRLPRPRPRPDPWPRP	0.0451
RRIRPRPPRLPRPRPRPTVSPRP	0.433
RRIRDRPPRLPRPRPRPFYNPRP	-0.732
